Paper PMC9424959, “Single mutations toggle the substrate selectivity of multifunctional Camptotheca secologanic acid synthases” (The Journal of Biological Chemistry, 2022)
Positions count from the first letter of the chain named. Names and notes keep the numbering of the source. Blank lines part the entries; values can stand above or below the molecule they belong to.

Tests used:
CYP72A565 [1] = biological target: T1, CYP72A565 (Camptotheca acuminata, UniProt A0A4Y5UJ61, H131F/H132D); experiment: Type I difference spectral titration; assay type: binding; settings: read-out: Ks/mM
T1 construct: full-length ORF, C-terminal His6, in pCWori, expressed in E. coli, purified; kinetics with Camptotheca CPR1 and DLPC
From the text: (§1) Type I difference spectral titration on CYP72A565

CYP72A565 [2] = biological target: T2, CYP72A565 (Camptotheca acuminata, UniProt A0A4Y5UJ61, K270T); experiment: Type I difference spectral titration; assay type: binding; settings: read-out: Ks/mM
T2 construct: full-length ORF, C-terminal His6, in pCWori, expressed in E. coli, purified; kinetics with Camptotheca CPR1 and DLPC
From the text: as §1

CYP72A565 [3] = biological target: T3, CYP72A565 (Camptotheca acuminata, UniProt A0A4Y5UJ61, H131F); experiment: Type I difference spectral titration; assay type: binding; settings: read-out: Ks/mM
T3 construct: full-length ORF, C-terminal His6, in pCWori, expressed in E. coli, purified; kinetics with Camptotheca CPR1 and DLPC
From the text: as §1

[4] = biological target: SLS, SLAS common ancestor (node 34) (synthetic construct); experiment: Type I difference spectral titration; assay type: binding; settings: read-out: Ks/mM
From the text: Type I difference spectral titration on SLS, SLAS common ancestor (node 34)

CYP72A565 [5] = biological target: T4, CYP72A565 (Camptotheca acuminata, UniProt A0A4Y5UJ61); experiment: LC-MS of secologanin formed, reconstituted with CPR1; assay type: biochemical; settings: 250 uM substrate, 500 uM NADPH, Camptotheca CPR1, DLPC, 100 mM NaPO4 pH 7.5, 30 °C, 120 min
T4 construct: full-length ORF, C-terminal His6, in pCWori, expressed in E. coli, purified; kinetics with Camptotheca CPR1 and DLPC

CYP72A564 [6] = biological target: T5, CYP72A564 (Camptotheca acuminata, UniProt A0A7G8Z808, H131F); experiment: Type I difference spectral titration; assay type: binding; settings: read-out: Ks/mM
T5 construct: full-length ORF, C-terminal His6, in pCWori, expressed in E. coli, purified; kinetics with Camptotheca CPR1 and DLPC
From the text: (§2) Type I difference spectral titration on CYP72A564

CYP72A564 [7] = biological target: T6, CYP72A564 (Camptotheca acuminata, UniProt A0A7G8Z808, H132D); experiment: Type I difference spectral titration; assay type: binding; settings: read-out: Ks/mM
T6 construct: full-length ORF, C-terminal His6, in pCWori, expressed in E. coli, purified; kinetics with Camptotheca CPR1 and DLPC
From the text: as §2

CYP72A564 [8] = biological target: T7, CYP72A564 (Camptotheca acuminata, UniProt A0A7G8Z808); experiment: LC-MS of secologanin formed, reconstituted with CPR1; assay type: biochemical; settings: 250 uM substrate, 500 uM NADPH, Camptotheca CPR1, DLPC, 100 mM NaPO4 pH 7.5, 30 °C, 120 min
T7 construct: full-length ORF, C-terminal His6, in pCWori, expressed in E. coli, purified; kinetics with Camptotheca CPR1 and DLPC

CYP72A564 [9] = biological target: T7, CYP72A564; experiment: LC-MS of secologanic acid formed, reconstituted with CPR1; assay type: biochemical; settings: 250 uM substrate, 500 uM NADPH, Camptotheca CPR1, DLPC, 100 mM NaPO4 pH 7.5, 30 °C, 120 min
CYP72A565 [10] = biological target: T4, CYP72A565; experiment: as above; assay type: biochemical; settings: 250 uM substrate, 500 uM NADPH, Camptotheca CPR1, DLPC, 100 mM NaPO4 pH 7.5, 30 °C, 120 min
purified protein [11] = substrate: COC(=O)C1=CO[C@@H](O[C@@H]2O[C@H](CO)[C@@H](O)[C@H](O)[C@H]2O)[C@@H]2[C@@H](C)[C@@H](O)C[C@H]12; experiment: purified protein; assay type: biochemical, Camptotheca acuminata; settings: ~0.8 mM NADPH, Camptotheca CPR1, 60 uM DLPC, 100 mM NaPO4 pH 7.5, 30 °C
purified protein [12] = substrate: C[C@@H]1[C@H]2[C@H](O[C@@H]3O[C@H](CO)[C@@H](O)[C@H](O)[C@H]3O)OC=C(C(=O)O)[C@H]2C[C@@H]1O; experiment: purified protein; assay type: biochemical, Camptotheca acuminata; settings: ~0.8 mM NADPH, Camptotheca CPR1, 60 uM DLPC, 100 mM NaPO4 pH 7.5, 30 °C

T4 sequence (A0A4Y5UJ61 entry or part of it): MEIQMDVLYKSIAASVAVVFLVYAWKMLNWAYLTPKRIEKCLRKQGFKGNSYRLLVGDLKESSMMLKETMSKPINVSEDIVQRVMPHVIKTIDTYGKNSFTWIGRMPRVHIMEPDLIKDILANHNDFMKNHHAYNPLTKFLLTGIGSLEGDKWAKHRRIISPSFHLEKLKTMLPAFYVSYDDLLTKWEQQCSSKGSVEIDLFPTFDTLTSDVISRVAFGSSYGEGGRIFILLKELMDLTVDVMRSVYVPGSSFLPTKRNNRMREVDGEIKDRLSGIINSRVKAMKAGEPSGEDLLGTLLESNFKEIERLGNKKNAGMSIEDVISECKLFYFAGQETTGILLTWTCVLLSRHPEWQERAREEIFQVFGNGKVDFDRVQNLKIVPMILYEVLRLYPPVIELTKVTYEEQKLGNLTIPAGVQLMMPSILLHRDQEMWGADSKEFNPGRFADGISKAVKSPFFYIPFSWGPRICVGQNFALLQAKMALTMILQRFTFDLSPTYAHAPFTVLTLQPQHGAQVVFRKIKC
T7 sequence (A0A7G8Z808 entry or part of it): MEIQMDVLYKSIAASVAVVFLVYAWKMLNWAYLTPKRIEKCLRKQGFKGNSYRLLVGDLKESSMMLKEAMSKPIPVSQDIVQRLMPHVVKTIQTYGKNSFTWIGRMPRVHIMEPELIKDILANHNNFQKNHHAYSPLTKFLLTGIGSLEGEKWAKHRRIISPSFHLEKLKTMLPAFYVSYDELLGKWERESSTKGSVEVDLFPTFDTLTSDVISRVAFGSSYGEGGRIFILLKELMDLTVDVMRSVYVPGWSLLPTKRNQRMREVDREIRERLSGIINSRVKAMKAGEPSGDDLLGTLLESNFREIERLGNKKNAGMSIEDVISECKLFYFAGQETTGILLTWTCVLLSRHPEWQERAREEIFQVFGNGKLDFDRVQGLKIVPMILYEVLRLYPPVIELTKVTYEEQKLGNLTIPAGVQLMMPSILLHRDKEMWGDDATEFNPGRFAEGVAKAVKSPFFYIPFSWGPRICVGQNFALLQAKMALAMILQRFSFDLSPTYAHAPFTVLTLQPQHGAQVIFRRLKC
T2 sequence (A0A4Y5UJ61 entry or part of it K270T): as the sequence (A0A4Y5UJ61 entry or part of it) above, with K270T counted along it
T1 sequence (A0A4Y5UJ61 entry or part of it H131F/H132D): as the sequence (A0A4Y5UJ61 entry or part of it) above, with H131F, H132D counted along it
T6 sequence (A0A7G8Z808 entry or part of it H132D): as the sequence (A0A7G8Z808 entry or part of it) above, with H132D counted along it

- Kd (CYP72A565 [1]): 0.345 ± 0.041 mM
- Kd (CYP72A565 [2]): 1.2 ± 0.084 mM
- Kd (CYP72A565 [3]): 0.283 ± 0.013 mM
- Kd [4]: 2.3 ± 1 mM
- Kd (CYP72A564 [6]): 0.0547 ± 0.003 mM
- Kd (CYP72A564 [7]): 1.19 ± 0.048 mM
Molecule: COC(=O)C1=CO[C@@H](O[C@@H]2O[C@H](CO)[C@@H](O)[C@H](O)[C@H]2O)[C@@H]2[C@@H](C)[C@@H](O)C[C@H]12 [loganin]
- LC-MS of secologanin formed, reconstituted with CPR1 (CYP72A565 [5]): CYP72A564 consistently showed higher SLS and SLAS activity than CYP72A565
- LC-MS of secologanin formed, reconstituted with CPR1 (CYP72A564 [8]): CYP72A564 consistently showed higher SLS and SLAS activity than CYP72A565

Molecule: C[C@@H]1[C@H]2[C@H](O[C@@H]3O[C@H](CO)[C@@H](O)[C@H](O)[C@H]3O)OC=C(C(=O)O)[C@H]2C[C@@H]1O [loganic acid]
- LC-MS of secologanic acid formed, reconstituted with CPR1 (CYP72A564 [9]): CYP72A564 consistently showed higher SLS and SLAS activity than CYP72A565
- LC-MS of secologanic acid formed, reconstituted with CPR1 (CYP72A565 [10]): CYP72A564 consistently showed higher SLS and SLAS activity than CYP72A565

B1: CYP72A565 (Camptotheca acuminata; H131F) (protein)
chain: MEIQMDVLYKSIAASVAVVFLVYAWKMLNWAYLTPKRIEKCLRKQGFKGNSYRLLVGDLKESSMMLKETMSKPINVSEDIVQRVMPHVIKTIDTYGKNSFTWIGRMPRVHIMEPDLIKDILANHNDFMKNFHAYNPLTKFLLTGIGSLEGDKWAKHRRIISPSFHLEKLKTMLPAFYVSYDDLLTKWEQQCSSKGSVEIDLFPTFDTLTSDVISRVAFGSSYGEGGRIFILLKELMDLTVDVMRSVYVPGSSFLPTKRNNRMREVDGEIKDRLSGIINSRVKAMKAGEPSGEDLLGTLLESNFKEIERLGNKKNAGMSIEDVISECKLFYFAGQETTGILLTWTCVLLSRHPEWQERAREEIFQVFGNGKVDFDRVQNLKIVPMILYEVLRLYPPVIELTKVTYEEQKLGNLTIPAGVQLMMPSILLHRDQEMWGADSKEFNPGRFADGISKAVKSPFFYIPFSWGPRICVGQNFALLQAKMALTMILQRFTFDLSPTYAHAPFTVLTLQPQHGAQVVFRKIKC
notes: full-length ORF, C-terminal His6, in pCWori, expressed in E. coli, purified; kinetics with Camptotheca CPR1 and DLPC
- Km (purified protein [11]): 290 ± 80 µM
- kcat (purified protein [11]): 0.128 ± 0.01 s⁻¹
- kcat/Km (purified protein [11]): 445 ± 130 M⁻¹ s⁻¹

B2: CYP72A565 (Camptotheca acuminata; H131F/H132D) (protein)
chain: B1 chain with H132D
notes: as for B1
- Km (purified protein [11]): 1710 ± 100 µM
- kcat (purified protein [11]): 0.53 ± 0.0233 s⁻¹
- kcat/Km (purified protein [11]): 280 ± 18.3 M⁻¹ s⁻¹

B3: CYP72A564 (Camptotheca acuminata; H131F) (protein)
chain: MEIQMDVLYKSIAASVAVVFLVYAWKMLNWAYLTPKRIEKCLRKQGFKGNSYRLLVGDLKESSMMLKEAMSKPIPVSQDIVQRLMPHVVKTIQTYGKNSFTWIGRMPRVHIMEPELIKDILANHNNFQKNFHAYSPLTKFLLTGIGSLEGEKWAKHRRIISPSFHLEKLKTMLPAFYVSYDELLGKWERESSTKGSVEVDLFPTFDTLTSDVISRVAFGSSYGEGGRIFILLKELMDLTVDVMRSVYVPGWSLLPTKRNQRMREVDREIRERLSGIINSRVKAMKAGEPSGDDLLGTLLESNFREIERLGNKKNAGMSIEDVISECKLFYFAGQETTGILLTWTCVLLSRHPEWQERAREEIFQVFGNGKLDFDRVQGLKIVPMILYEVLRLYPPVIELTKVTYEEQKLGNLTIPAGVQLMMPSILLHRDKEMWGDDATEFNPGRFAEGVAKAVKSPFFYIPFSWGPRICVGQNFALLQAKMALAMILQRFSFDLSPTYAHAPFTVLTLQPQHGAQVIFRRLKC
notes: as for B1
- Km (purified protein [11]): 50 ± 10 µM
- kcat (purified protein [11]): 0.132 ± 0.00333 s⁻¹
- kcat/Km (purified protein [11]): 2480 ± 300 M⁻¹ s⁻¹

B4: CYP72A564 (Camptotheca acuminata; H132D) (protein)
chain: B3 chain with F131H, H132D
notes: as for B1
- Km (purified protein [11]): 1440 ± 60 µM
- kcat (purified protein [11]): 0.228 ± 0.005 s⁻¹
- kcat/Km (purified protein [11]): 158 ± 8.33 M⁻¹ s⁻¹

B5: CYP72A564 (Camptotheca acuminata; R270T) (protein)
chain: B3 chain with F131H, R270T
notes: as for B1
- Km (purified protein [12]): 3540 ± 510 µM
- kcat (purified protein [12]): 0.333 ± 0.0267 s⁻¹
- kcat/Km (purified protein [12]): 95 ± 15 M⁻¹ s⁻¹
